Laboratory results from patent US20230407327A1, “INDUCIBLE PROMOTER FOR VIRAL VECTOR PRODUCTION” (ASKLEPIOS BIOPHARMACEUTICAL, INC., priority 2020, published 2023).

B1: Synp-HV3C: synthetic hypoxia-inducible promoter, SEQ ID NO: 3; 4 HRE3 and CMV minimal promoter (nucleic acid)
DNA: ACCTTGAGTACGTGCGTCTCTGCACGTATGGCGATTAAGACCTTGAGTACGTGCGTCTCTGCACGTATGGCGATTAAGACCTTGAGTACGTGCGTCTCTGCACGTATGGCGATTAAGACCTTGAGTACGTGCGTCTCTGCACGTATGGCGATTAATCCATATGCAGGTCTATATAAGCAGAGCTCGTTTAGTGAACCGTCAGATCGCCTAGATACGCCATCCACGCTGTTTTGACCTCCATAGAAGATCGCCACC
B2: Synp-RTV-016: synthetic hypoxia-inducible promoter, SEQ ID NO: 1; 6 HRE2 and CMV minimal promoter (nucleic acid)
DNA: CTGCACGTAGATGATGCGTAGCTAGTAGTCTGCACGTAGATGATGCGTAGCTAGTAGTCTGCACGTAGATGATGCGTAGCTAGTAGTCTGCACGTAGATGATGCGTAGCTAGTAGTCTGCACGTAGATGATGCGTAGCTAGTAGTCTGCACGTAGTAGTCGTATGCTGATGCGCAGTTAGCGTAGCTGAGGTACCGTCGACGATATCGGATCCAGGTCTATATAAGCAGAGCTCGTTTAGTGAACCGTCAGATCGCCTAGATACGCCATCCACGCTGTTTTGACCTCCATAGAAGATCGCCACC
B3: Synp-RTV-019: synthetic forskolin-inducible promoter, SEQ ID NO: 5; 3×ATF6, 4× AP1 and 3× HIF TFBS and a CMV-MP (nucleic acid)
DNA: TGACGTGCTGATGATGCGTAGCTAGTAGTTGACGTGCTGATGATGCGTAGCTAGTAGTTGACGTGCTGATGATGCGTAGCTAGTAGTTGAGTCAGATGATGCGTAGCTAGTAGTTGAGTCAGATGATGCGTAGCTAGTAGTTGAGTCAGATGATGCGTAGCTAGTAGTTGAGTCAGATGATGCGTAGCTAGTAGTCTGCACGTAGATGATGCGTAGCTAGTAGTCTGCACGTAGATGATGCGTAGCTAGTAGTCTGCACGTAGATGATGCGTAGCTAGTAGTGCAGTTAGCGTAGCTGAGGTACCGTCGACGATATCGGATCCAGGTCTATATAAGCAGAGCTCGTTTAGTGAACCGTCAGATCGCCTAGATACGCCATCCACGCTGTTTTGACCTCCATAGAAGATCGCCACC
B4: Synp-HYBT: synthetic hypoxia-inducible promoter, SEQ ID NO: 2; 4 HRE3 and a YB-TATA minimal promoter (nucleic acid)
DNA: ACCTTGAGTACGTGCGTCTCTGCACGTATGGCGATTAAGACCTTGAGTACGTGCGTCTCTGCACGTATGGCGATTAAGACCTTGAGTACGTGCGTCTCTGCACGTATGGCGATTAAGACCTTGAGTACGTGCGTCTCTGCACGTATGGCGATTAATCCATATGCTCTAGAGGGTATATAATGGGGGCCA
B5: Synp-RTV-017: synthetic forskolin-inducible promoter, SEQ ID NO: 4; 8× AP1 TFBS and a CMV-MP (nucleic acid)
DNA: TGAGTCAGATGATGCGTAGCTAGTAGTTGAGTCAGATGATGCGTAGCTAGTAGTTGAGTCAGATGATGCGTAGCTAGTAGTTGAGTCAGATGATGCGTAGCTAGTAGTTGAGTCAGATGATGCGTAGCTAGTAGTTGAGTCAGATGATGCGTAGCTAGTAGTTGAGTCAGATGATGCGTAGCTAGTAGTTGAGTCAGTAGTCGTATGCTGATGCGCAGTTAGCGTAGCTGAGGTACCGTCGACGATATCGGATCCAGGTCTATATAAGCAGAGCTCGTTTAGTGAACCGTCAGATCGCCTAGATACGCCATCCACGCTGTTTTGACCTCCATAGAAGATCGCCACC
B6: Synp-FORCYB1: synthetic forskolin-inducible promoter, SEQ ID NO: 6; 5× cAMPRE and 4× AP1 TFBS and YB-TATA-MP (nucleic acid)
DNA: TGACGTCACGATTACCATTGACGTCACGATTACCATTGACGTCACGATTACCATTGACGTCACGATTACCATTGACGTCAGCGATTAAGATGACTCAGCGATTAAGATGACTCAGCGATTAAGATGACTCAGCGATTAAGATGACTCAGCGATTAATCCATATGCTCTAGAGGGTATATAATGGGGGCCACTAGTCTACTACCAGAAAGCTTGGTACCGAGCTCGGATCCAGCCACC

How the values were obtained:
HEK293-T cells = experiment: Luciferase expression from hypoxia-inducible promoters in transiently transfected HEK293-T cells; format: cell-based, human; settings: for luciferase activity in normoxia: normoxic conditions, FIG. 4
Protocol: HEK293-T are seeded at a density of 20%. Once they reached a confluence between 60 and 80%, the media is changed with DMEM (#21885-025—Thermo Scientific) supplemented with 10% FBS (Gibco, 26140). After 3 hours, the cells are transfected by a transfection mix. The transfection mix is prepared by adding DNA (2 μg per 6 well plate) and PEI 25 kDA (#23966-1—Polyscience) in a ratio of 1:3 in sterile DPBS (#14190169—ThermoFisher Scientific). After mixing, the transfection mix is incubated at room temperature for 30 minutes and then added directly to the cells. After 16 to 18 h post transfection, the media is changed to DMEM+2% FBS. The transfected DNA is one of the vectors where the promoter construct (Synp-RTV-016, Synp-HYBT and Synp-HV3C) or a control promoter (CMV-IE) are used to drive luciferase expression and P-galactosidase containing pcDNA6 plasmid. The β-galactosidase containing plasmid is used as internal control for transfection efficiency (Thermofisher, V22020).
After transfection the cells are incubated for 24 hrs in normoxic conditions (20% oxygen). Induction of the promoters is assessed by using luciferase activity after 24 hrs in normoxia or hypoxia (5% oxygen, 10% carbon dioxide and 85% nitrogen). Hypoxia is achieved by gas displacement in a sealed hypoxia chamber.
(§1) Luciferase activity is measured using LARII (Dual Luciferase Reporter 1000 assay system, Promega, E1980).
Media is removed from the cells at the respective time point (0, 3, 5, 24 hrs after induction). The cells are washed once in 300 μl of DPBS. Cells are lysed by adding 100 μl of passive lysis buffer to the cells and incubation with rocking for 15 minutes. The cell debris is pelleted by centrifugation of the plate at max speed in a benchtop centrifuge for 1 min. 10 μl of supernatant is pipetted into white 96-well plate and luminescence measured by addition of 50 μl of LARII substrate.
β-galactosidase activity is measured as per manufacturer's instructions (Mammalian PGalactosidase Assay Kit, 75707/75710, Thermo Scientific) using 25 µl of lysate. 25 μl of lysate is transferred into a microplate well and mixed with 25 μl of β-galactosidase Assay Reagent, equilibrated to room temperature. The mixture is incubated at 37° C. for 30 min and absorbance measured at 405 nm.
(§2) Luciferase readouts are normalised to β-galactosidase to produce normalised relative luminometer units (RLUs).

HEK293-F cells = experiment: Luciferase expression from hypoxia-inducible promoters in transiently transfected HEK293-F cells; format: cell-based, human; settings: cells placed in hypoxia at 0 hours; FIG. 3
Protocol: 40 ml of cells are grown in a 250 ml vented Erlenmeyer flask (Sigma-Aldrich CLS431144) at 37° C., 20% O2, 8% CO2 with agitation at 100 rpm. Cells are seeded as described in the manufacturer's instructions (300,000 cells/ml). HEK293-F are obtained from Thermofisher, R79007.
One day before transfection, the cells are counted using a haemocytometer and split to 500,000 cells/ml.
On the day of transfection, the cells are seeded to 1,000,000 cells/ml in 500 µl of appropriate medium (Freestyle 293 expression medium, 12338002) in a 24 well plate. […] of DNA per well is then added to 10 μl of OptiMem medium (Thermofisher; 11058021) and incubated for 5 minutes at room temperature.
Concurrently, 0.625 μl of Max reagent (Thermofisher, 16447100) is made up to […] by addition of OptiMem and incubated for 5 minutes at room temperature. After this incubation, both mixes are added to the same tube and incubated at room temperature for 25-30 minutes. The DNA/Max reagent mix (20 μl/well) is then added directly to the cells and the cells incubated at 37° C., 8% CO2 with agitation at 100 rpm. […]
After transfection the cells are incubated for 24 hrs in normoxia conditions (20% oxygen) before being switched to a gas mix of 5% oxygen, 10% carbon dioxide and 85% nitrogen (hypoxia). […] Induction of the promoters is assessed by using luciferase activity after 3, 5 and 24 hrs in hypoxia.
as §1
Media is removed from the cells at the respective time point (0, 3, 5, 24 hrs after induction). […] 10 μl of supernatant is pipetted into white 96-well plate and luminescence measured by addition of 50 μl of LARII substrate.
β-galactosidase activity is measured as per manufacturer's instructions (Mammalian PGalactosidase Assay Kit, 75707/75710, Thermo Scientific) using 25 µl of lysate. […] The mixture is incubated at 37° C. for 30 min and absorbance measured at 405 nm.
as §2

Huh7 (liver) = experiment: Luciferase expression from forskolin-inducible promoters in Huh7 cells; format: cell-based, human; settings: for luciferase activity after induction, promoter expressed from an AAV vector: 20 μM forskolin or 7.2 μM NKH477; for luciferase activity after induction, promoter expressed from an AAV vector / luciferase activity without induction, promoter expressed from an AAV vector: FIG. 8; for luciferase activity after induction: 20 μM forskolin; for luciferase activity after induction / luciferase activity without induction: FIG. 6; for luciferase activity without induction, promoter expressed from an AAV vector: AAV vector containing ITRs
Protocol: Luciferase activity was measured without induction and after induction with 20 μM forskolin or 7.2 μM NKH477.

C2C12 (muscle) cells = experiment: Luciferase expression from forskolin-inducible promoter in C2C12 cells; format: cell-based, mouse; settings: FIG. 7
Source text: CMV-IE expression was not analyzed under induced conditions, and thus no result is shown in the graph.

Molecule	luciferase expression / inducibility after 24 hours in hypoxia versus normoxia (HEK293-T cells)	luciferase activity in normoxia (HEK293-T cells)	luciferase activity over time in hypoxia (HEK293-F cells)	luciferase activity after induction, promoter expressed from an AAV vector (Huh7 (liver))	luciferase activity after induction (Huh7 (liver))	luciferase activity without induction, promoter expressed from an AAV vector (Huh7 (liver))	luciferase activity without induction (Huh7 (liver))	luciferase activity after induction (C2C12 (muscle) cells; 20 μM forskolin)	luciferase activity without induction (C2C12 (muscle) cells)
B1	highest	almost no luciferase activity	increase in luciferase activity with time						
B2	lowest	almost no luciferase activity	increase in luciferase activity with time						
B3				high activity	high activity	low background activity	low background activity	high activity	low background activity
B4	induced to a varying level	almost no luciferase activity	increase in luciferase activity with time						
B5				high activity	high activity	low background activity	low background activity		
B6				high activity		low background activity			
